T1: recombinant cynomolgus MerTK extracellular domain (cynomolgus, UniProt Q12866 21-505 (human entry))
T1 construct: also called cyno MerTK ECD; not shown: polyHis or TEVS/Thrombin/murine IgG2a-Fc tag
T1 chain: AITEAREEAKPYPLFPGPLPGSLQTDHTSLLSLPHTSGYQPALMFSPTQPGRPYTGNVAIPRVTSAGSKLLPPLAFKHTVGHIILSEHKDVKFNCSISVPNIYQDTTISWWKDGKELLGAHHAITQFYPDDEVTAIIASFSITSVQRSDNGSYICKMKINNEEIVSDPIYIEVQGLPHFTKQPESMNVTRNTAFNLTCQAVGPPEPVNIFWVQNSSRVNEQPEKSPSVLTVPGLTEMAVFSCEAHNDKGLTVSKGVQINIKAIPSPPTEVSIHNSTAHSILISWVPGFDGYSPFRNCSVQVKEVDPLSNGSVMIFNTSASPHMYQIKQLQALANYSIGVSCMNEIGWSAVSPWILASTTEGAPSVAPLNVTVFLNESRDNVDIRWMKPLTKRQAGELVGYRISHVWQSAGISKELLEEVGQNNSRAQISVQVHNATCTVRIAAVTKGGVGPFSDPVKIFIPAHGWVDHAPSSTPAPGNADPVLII

T2: recombinant murine MerTK extracellular domain (mouse, UniProt Q60805 19-497)
T2 construct: also called Mouse MerTK; murine MerTK ECD; not shown: polyHis or TEVS/Thrombin/murine IgG2a-Fc tag
T2 sequence: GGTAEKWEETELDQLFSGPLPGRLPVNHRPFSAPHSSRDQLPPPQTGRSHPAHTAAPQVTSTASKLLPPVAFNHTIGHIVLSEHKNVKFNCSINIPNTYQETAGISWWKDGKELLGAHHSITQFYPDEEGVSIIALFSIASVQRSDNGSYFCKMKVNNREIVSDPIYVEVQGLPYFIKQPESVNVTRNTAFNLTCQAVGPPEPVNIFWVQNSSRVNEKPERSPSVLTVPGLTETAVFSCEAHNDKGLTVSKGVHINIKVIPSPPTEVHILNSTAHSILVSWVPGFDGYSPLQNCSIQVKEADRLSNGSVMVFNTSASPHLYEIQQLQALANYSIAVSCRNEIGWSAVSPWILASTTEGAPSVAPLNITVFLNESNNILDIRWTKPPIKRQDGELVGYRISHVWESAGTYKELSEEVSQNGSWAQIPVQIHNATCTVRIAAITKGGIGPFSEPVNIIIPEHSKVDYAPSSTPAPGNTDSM


Assays:
[1] = target: T1, recombinant cynomolgus MerTK …; experiment: SPR Carterra LSA
Protocol: Binding kinetics of anti-MerTK IgG1 antibodies of the present disclosure to human, cyno, and murine MerTK were evaluated using a Carterra LSA instrument (Carterra, Salt Lake City, UT). […] A HC200M sensor chip (Carterra) was activated using the single channel flow cell with a 7-minute injection of a 1:1:1 mixture of 100 mM MES pH 5.5, 100 mM sulfo-NHS, 400 mM EDC (all reconstituted in MES pH 5.5; 100 μl of each mixed in vial immediately before running assay). After switching to the multi-channel array flow cell, the antibodies were injected over the activated chip in three 96-spot arrays for 10 minutes each. The remaining unconjugated active groups on the chip were then blocked by injecting 1M Ethanolamine pH 8.5 (Carterra) for 7 minutes using the single channel flow cell. The resulting sensor chip contained three spots for each antibody, at three different densities. Two independent experiments were performed as follows, resulting in an N of between one and six determinations for each antibody. Spots that yielded less than 25 RU of analyte binding were excluded from further analysis.
After priming with running buffer (HBS-TE, Carterra) with 0.5 mg/ml BSA (Sigma), the immobilized anti-MerTK antibodies were tested for their ability to bind to several forms of recombinant MerTK extracellular domain, including human, cynomolgus, and mouse orthologs as described above. Estimates of affinity were generated by injecting each analyte over the entire antibody array using the single channel flow cell. MerTK analytes were diluted with running buffer, in a series of six, three-fold serial dilutions starting from 1 μM for human and cynomolgus MerTK, and 600 nM for mouse MerTK. Analytes were injected for 5 minutes, and dissociation was followed for 10 minutes. After each analyte injection, antibodies were regenerated with either Protein A/G Elution Buffer (Thermo) with 1M NaCl (Teknova), or with 10 mM Glycine pH 2.5. Three buffer blanks were run between each series (one species per series). Data were processed and analyzed using NextGenKIT high-throughput kinetics analysis software (Carterra).

[2] = target: T1, recombinant cynomolgus MerTK …; experiment: SPR Carterra LSA, Ab immobilised
In short: (§1)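 Surface plasmon resonance on a Carterra LSA measured affinity of immobilized antibodies for human, cynomolgus or mouse MerTK ectodomain diluted in HBS-TE with 0.5 mg/ml BSA. Analytes flowed over the full array, surfaces were regenerated with Protein A/G Elution Buffer plus 1M NaCl or 10 mM Glycine pH 2.5, and spots binding under 25 RU were discarded before kinetic fitting.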

[3] = target: T2, recombinant murine MerTK extracellular …; experiment: SPR Carterra LSA, Ab immobilised
In short: as §1

Ratio of KD for Cynomolgus vs Human MerTK [1] [ratio]	Kd [2] [nM]	Kd [3] [nM]	Binder	binding result [3]
1.1	1.4	–	MTK-211 (antibody, human IgG1, V domains shown) VH: QVQLQQSGAELMKPGASVKLSCKATGYTFTGYWIEWVKQRPGHGLEWIGEILPGSGGSNYNEKFKGKATFTADTSSNTAYIQLSSLTTEDSAIYCCARGEPSYFSDAGFAYWGQGTLVTVSA VL: QIVLTQSPAVMSASPGEKVTMTCSASSSITYMHWYQQKPGTSPKRWIYDTSKLASGVPARFSGSGSGTSYFLTISSMEAEDVATYYCHQRSTYPYTFGGGTKLEIM	–
1.5	80	–	MTK-225 (antibody, human IgG1, V domains shown) VH: EVQLQQSGPELVKPGASVKIFCKASGYTFTAYNMDWVKQSHGKSLEWIGDINPNNGGTIYNQKFKGKATLTVDKSSSTAYMELRSLTSEDTAVYYCARRRRYGNTYYWYFDVWGTGTTVTVSS VL: DIQMTQSPASLSVSVGETVTITCRASENIYSSLAWYQQKQGKSPQLLVYAATNLADGVPSRFSGSGSGTQFYLKINGLQSEDFGSYYCQHFWGTSYTFGGGTKLEIK	–
1.8	34	–	MTK-208 (antibody, human IgG1, V domains shown) VH: QVQLQQPGAELVVPGASVRLSCKASGYTFINYWMHWVKQRPGQGLEWIGEIDPSDSYANYNQKFKDKSTLSLDKSSSTAYMQLSSLTSEDSAVYYCARCDYYGRLDYWGQGTTLTVSS VL: QVVLTQSPAIMSASPGEKVTITCSASSSVSYMLWFQQKPGTSPKLWIYSTSNLASGVPARFSGSGSGTSYSLTISRLEAEDAATYYCQQRSSYPPITFGAGTKLELK	no binding (tested: analyte up to 600 nM)
2.5	190	–	MTK-223 (antibody, human IgG1, V domains shown) VH: DVQLQESGPGLVKPSQSLSLTCSVTGYSITSGYYWNWIRQFPGNKLEWMGYISYDGTNNYNPSLKNRISITRDTSENQFFLKLNSVTTEDTATYFCVRGAGYWGQGTTLTVSS VL: not shown	–
1.8	48	–	MTK-231 (antibody, human IgG1, V domains shown) VH: DVQLQESGPGLVKPSQSLSLTCSVTGYSITSGYYWNWIRQFPGNKLEWMGYISYDGTYNYHPSLKNRISITRDTSKNQFFLTLNSVTTEDTATFYCTRGGGYWGQGTSVTVSS VL: DVVMTQTPLSLPVSLGDQASISCRSSQSLVHSDGNTYLHWYLQKPGQSPKLLIYKVSNRFSGVPDRFSGSGSGTDFTLKISRLEAEDLGIYFCSQTTHIPLTFGSGTKLEIK	–
0.9	60	4.8	MTK-213 (antibody, human IgG1, V domains shown) VH: QVQLQQPGAELVKPGASVKMSCKASGYTFTSYWITWVKQRPGQGHEWIGEIYPGIGSTNYNEKFKSKATLTVDTSSRTAYMQLSSLTSEDSAVYFCARGAYTKYYFDYWGQGTTLTVSS VL: DIVMTQSHKFMSTSVGDRVSITCKASQDVGDAVAWYQQKPGQTPKLLIYWASTRHTGVPDRFTGSGSGTDFTLTISNVQSEDLADYFCQQYSSYLMYTFGGGTKLEIK	–
2.7	410	–	MTK-220 (antibody, V domains shown) VH: EVQLVESGGGLVKPGGSLKLSCAASGFTFSDYGMHWVRQAPEKGLEWVAFISGGSGTIYYEDTVKGRFTISRDNAKNTLFLQMTSLRSEDTAMYYCTRGGNYFDYWGQGTTLTVSS VL: NIMLTQSPSSLAVSAGEKVTMTCKSSQSVLYSSNQKNYLAWYQQKPGQSPKLLIYWASTRESGVPDRFTGSGSGTDFTLTISNVQAEDLAVYYCHQYFSSWTFGGGTKLEIK	–
2.8	680	–	MTK-204 (antibody, human IgG1, V domains shown) VH: EVQLVESGGGLVKPGGSLKLSCAASGFTFSDYGMHWVRQAPEKGLEWVAYISSGTSTIYYEDTVKGRFTISRDNAKNTLFLQMTSLRSEDTAMYYCARGGLLFDYWGQGTTLTVSS VL: NIMMTQSPSSLAVSAGEKVTMSCKSSQSVLYSSNQKNYLAWYQQKPGQSPKLLIQWASTRESGVPDRFTGSGSETDFTLTIRSVQAEDLAVYYCHQYFSSWTFGGGTKLEIK	–
4.8	160	–	MTK-202 (antibody, human IgG1, V domains shown) VH: EVQLVESGGGLVKPGGSLKLSCAASGFTFSDFGMHWVRQVPEKGLEWVAFISGGSNTIYYTDTVKGRFTISRDNAKNTLFLQMTSLRSEDTAMYYCVRNGNSFAYWGQGTLVTVSA VL: NIMMTQSPSSLAVSAGEKVTMNCKSSQSVLYSSNQKNYLAWYQQKPGQSPKLLIYWASTRESGVPDRFTGSGSGTDFTLTISNIQAEDLAIYYCHQYFFSWTFGGGTKLEIK	–
1.1	46	1.7	MTK-228 (antibody, human IgG1, V domains shown) VH: QDQLQQSGPELVKPGASVKISCKASGYSFTSYYIHWVKQRPGQGLEWVGWIFPGNGNTKYNERFKGKATLTADTSSSTAYMQLSSLTSEDSAVYYCARLGLIYALDYWGQGTSVTVSS VL: DAVMTQTPLSLPVSLGDQASISCRSSQSLENSNGNTYLHWYLQKPGQSPQLLIYRVSNRFSGVLDRFSGSGSGTDFTLKISRVEAEDLGVYFCLQVTHVPFTFGSGTKLEIK	–
1.3	85	6.2	MTK-218 (antibody, human IgG1, V domains shown) VH: QVQLQQSGPELVKPGTSVKISCKASGYSFTSYYIHWVKQRPGQGLDWIGWIFPGNRNTQYNEKFKGKATLTADTSSSTAYMQLSSLTSEDSAVYYCARLGLIYALDYWGQGTSVTVSS VL: DAVMTQTPLSLPVSLGDQASISCRSSQSLENSNGHTYLHWYLQKPGQSPQLLIYRVSNRFSGVQDRFSGSGSGTDFTLKISRVEAEDLGVYFCLQVTHVPFTFGSGTKLEIK	–
1.2	47	1.8	MTK-226 (antibody, human IgG1, V domains shown) VH: QVQLQQSGPELVKPGASVKISCKASGYSFTSYYIHWVKQRPGQGLEWIGWIFPGNGNTKYNENFRGKATLTADTSSSTAYMQLSSLTSEDSAVYYCARLGLIYALDYWGQGTSVTVSS VL: DAVMTQTPLSLPVSLGDQASISCRSSQSLESSNGNTYLHWYLQKPGQSPQLLIYRVSNRFSGVLDRFSGSGSGTDFTLQISRVEAEDLGVYFCLQVTHVPFTFGSGTKLEIK	–
4.3	1600	–	MTK-215 (antibody, human IgG1, V domains shown) VH: EVQLVESGGGLVKPGGSLKLSCAASGFIFSDYGMHWVRQAPEKGLEWVAYISSGSSTIYYGDTVKGRFTISRDNAKNTLFLQMTSLRSEDTAMYYCAKGGRYGAMDYWGHGTSVTVSS VL: DIVLTQSPATLSVTPGDSVSLSCRASQSISNNLHWYQQKSHESPRLLIKNPSQSISGIPSRFGARGSGTDFTLIINSVETEDLGVYFCQQSNSWPFTFGSGTKLEIK	–

Reference: patent US20240294650A1 (Alector, published 2024)
